Measurements taken from patent US20240400717A1, “Antibody Binding to CHI3L1 for Treating Cancer” (National Cheng Kung University, priority 2021, published 2024).

Experiments:
[1] = system: MiaPaCa-2 cells; experiment: MiaPaCa-2-bearing hHSC-HIS mouse model; assay type: in vivo, hHSC reconstituted ASID mice
Description: (§1) We used the advanced severe immunodeficiency (ASID) mice those were implanted with human […] hematopoietic stem cells (HSCs). MiaPaCa-2 and H460 cells were then subcutaneously injected into hHSC reconstituted ASID mice to evaluate the anti-tumor effects of CHI3L1 mAb clone R4-54 on lung and pancreatic cell lines in vivo. […] Tumor and peripheral blood were also harvest for further immune cell population examinations. […] In addition, peripheral blood samples of two tumor-bearing hHSC-HIS mice models were collected for analysis of immune cell populations. […] Data was presented as means±S.D. P values refer to two-tailed Student's t test. * P<0.05, ** P<0.01, *** P<0.001.

[2] = system: H460 cells; experiment: H460-bearing hHSC-HIS mouse model; assay type: in vivo, hHSC reconstituted ASID mice
Description: as §1

[3] = molecular target: mouse CHI3L1 antigen (Mus musculus, UniProt Q61362); experiment: Direct ELISA of phage clones, cross-reaction with mouse CHI3L1; assay type: binding; conditions: FIG. 1C
[4] = system: KPPC-luc cells; experiment: KPPC-luc orthotopic C57BL/6J mice model, mono-treatment; assay type: in vivo
Experimental: (§2) Thus, we established orthotopic animal models by directly injecting murine pancreatic cancer KPPC-luc cells (5×10^6) into pancreas of immunocompetent (C57BL/6J) mice. All mice were divided into two groups and treated with IgG isotype antibody as control, or mAb clone R4-4 (5 mg/kg) by intravenous (i.v.) injection via tail-vein at indicated time points (Day 3, Day 7, Day 10, and Day 14). Mice were sacrificed to verify tumor information on day 28. […] Data was presented as means±S.D. P values refer to two-tailed Student's t test. * P<0.05, ** P<0.01.

[5] = system: KPPC-luc cells; experiment: KPPC-luc orthotopic C57BL/6J mice model, mAb and chemotherapy combination; conditions: for tumor weight: day 29
[6] = Mouse muscle fiber area analysis (cachexia) in KPPC-luc orthotopic model; assay type: in vivo, C57BL/6J mice
Experimental: Since pancreatic patients often suffer from cachexia, the cancer-related muscle loss disorder (Henderson et al. 2018; Yoo et al. 2021), we further performed the mouse muscle fiber area analysis in IgG and R4-4 (10 mg/kg) groups. […] The value of the cross-sectional cutoff area was set to 1800, representing severe muscle loss (FIG. 15D).

[7] = molecular target: mouse rCHI3L1 (Mus musculus, UniProt Q61362); experiment: ELISA binding to mouse rCHI3L1; conditions: FIG. 10B
Experimental: FIGS. 10A to 10B show binding curves of ELISA assay indicated the binding of R4-4 (circle), R4-54 (square), 293R3-2 (triangle), and 293R3-4 (reverse triangle) to (FIG. 10A) human rCHI3L1 and (FIG. 10B) mouse rCHI3L1.
as §2

[8] = immunohistochemical staining, CD86 and CD163

Chain of mouse CHI3L1 antigen (Q61362 30-389): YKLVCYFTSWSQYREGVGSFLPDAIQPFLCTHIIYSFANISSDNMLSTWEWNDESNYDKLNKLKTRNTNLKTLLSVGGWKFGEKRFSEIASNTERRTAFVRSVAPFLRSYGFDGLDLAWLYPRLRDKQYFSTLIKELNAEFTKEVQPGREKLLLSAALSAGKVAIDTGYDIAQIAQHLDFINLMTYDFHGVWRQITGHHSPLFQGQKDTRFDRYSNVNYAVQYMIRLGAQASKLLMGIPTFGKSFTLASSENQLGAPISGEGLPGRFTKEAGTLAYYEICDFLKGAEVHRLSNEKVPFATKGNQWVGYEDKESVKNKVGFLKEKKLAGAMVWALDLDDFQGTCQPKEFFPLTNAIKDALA
Chain of mouse rCHI3L1 (Q61362 30-389): as above

B1: R4-54: fully human anti-CHI3L1 IgG1 mAb, Table 1 No. 34; heavy chain SEQ ID NO: 33, light chain SEQ ID NO: 34 (antibody, listed as Homo sapiens)
VH: QVQLVESGGGVVQPGRSLRLSCAASGFTFSSYGMHWVRQAPGKGLEWVAVISYDGSDKDYADSVKGRFTISRDNSKNTLFLQMNSLRAEDTAVYYCARDDYDSTYYFDNWGQGTTVTVSS
light: SYELTQPPSVSVSPGQTASITCSGDILADQYASWYQQKPGQSPVLVIYHDTKRPSGVPERFSGSTSGNTATLTISGTQAMDEAAYYCQAWDINTAWVFGGGTQLTVLGQPKAAPSVTLFPPSSEELQANKATLVCLISDFYPGAVTVAWKADSSPVKAGVETTTPSKQSNNKYAASSYLSLTPEQWKSHRSYSCQVTHEGSTVEKTVAPTECS
growth of subcutaneous xenografts ([1]; 5 mg/kg i.v. every five days from day 14, day 32): significantly delayed the growth | M2-like TAM and Treg populations in tumor-infiltrating immune cells ([1]; flow cytometry): M2-like TAM and Treg populations were decreased | percentages of M1 macrophages and CD8+ T cells in tumor-infiltrating immune cells ([1]; flow cytometry): increased the percentages of M1 macrophages and CD8+ T cells | intratumoral M1 to M2 ratio and CD8 T cells [1, 8]: M1 to M2 ratio and CD8 T cells were both increased | peripheral blood CD8+ T cells and Tregs ([1]; peripheral blood): increased CD8+ T cells and decreased Tregs | growth of subcutaneous xenografts ([2]; 5 mg/kg i.v. every five days from day 6, day 27): significantly delayed the growth | M2-like TAM and Treg populations in tumor-infiltrating immune cells ([2]; flow cytometry): M2-like TAM and Treg populations were decreased | percentages of M1 macrophages and CD8+ T cells in tumor-infiltrating immune cells ([2]; flow cytometry): increased the percentages of M1 macrophages and CD8+ T cells | intratumoral M1 to M2 ratio and CD8 T cells [2, 8]: M1 to M2 ratio and CD8 T cells were both increased | peripheral blood CD8+ T cells and Tregs ([2]; peripheral blood): increased CD8+ T cells and decreased Tregs

B2: R4-4: fully human anti-CHI3L1 IgG1 mAb, Table 1 No. 9; heavy chain SEQ ID NO: 9, light chain SEQ ID NO: 10 (antibody, listed as Homo sapiens)
VH: EVQLLESGGGLLQPGGSLRLSCAASGLTFRNYAMTWVRQAPGKGLEWVSTISGNGDETFYADSVKGHFTISRDNSKDTVYLQMNSLRAEDTAVYYCAKGGHYSFFDSWGQGSPVTVSS
light: NFMLTQPHSVSESPGKTVTISCTRSSGSIASNYVQWYQQRPGSSPTTVIYEDNQRPSGVPDRFSGSIDSSSNSASLTISGLKTEDEADYYCQSYDSSNYVFGTGTKVTVLGQPKANPTVTLFPPSSEELQANKATLVCLISDFYPGAVTVAWKADGSPVKAGVETTKPSKQSNNKYAASSYLSLTPEQWKSHRSYSCQVTHEGSTVEKTVAPAECS
recognition of mouse CHI3L1 by phage clones [3]: cross-react with mouse CHI3L1 | tumor weight ([4]; 5 mg/kg i.v. Day 3, 7, 10, 14, day 28, vs IgG): significant reduction of tumor weight | body weight ([4]; 5 mg/kg i.v., vs IgG): without apparently body weight change | M1/M2 ratio ([4]; flow cytometry, 5 mg/kg i.v.): increased the M1/M2 ratio | tumor infiltrating M2-like TAMs (CD206+) ([4]; flow cytometry, 5 mg/kg i.v.): decreased | tumor infiltrating Treg (CD45+, Foxp3+) populations ([4]; flow cytometry, 5 mg/kg i.v.): decreased | tumor weight ([5]; GEM 25 mg/kg, R4-4 10 mg/kg, Abraxane 2.5 mg/kg, i.p. day 14, 20, 25): 2.61 g | tumor weight ([5]; R4-4 15 mg/kg i.p. day 14, 20, 25): 1.74 | Treg (CD4+, CD25+, Foxp3+) ([5]; R4-4 15 mg/kg, flow cytometry): significant decrease of Treg | angiogenesis level indicated by CD31 ([5]; all treated groups (R4-4 10 or 15 mg/kg)): largely reduced | tumor-infiltrating M1-like TAMs (CD86+, CD11b+) and M1/M2 ratio ([5]; flow cytometry): increased M1-like TAMs | tumor-infiltrating M2-like TAMs (CD206+, CD11b+) ([5]; flow cytometry): decreased M2-like TAMs | muscle fiber area ([6]; R4-4 10 mg/kg compared to IgG): larger muscle fiber area | muscle fibers below the cutoff value ([6]; R4-4 10 mg/kg, cross-sectional cutoff area 1800): 30.4% | cross-reaction with murine CHI3L1 [7]: the only one that could cross-react with murine CHI3L1
